± gives the standard deviation of the averaged measurements.
Test system: ATP
Assay: switch fluorescence ratio, 500 uM ATP over buffer (Cy3 cluster intensity, sum of 5 cycles each) (fold (ratio)); higher = stronger signal-on switching upon ATP binding; sequences stand for … in TCGTCGGCAGCGTCAGATGTGTATAAGAGACAGTTTTTTTTTTTTTTTTTTTTTTTTT…TC
Details: aptamer strand: ATP DNA aptamer (quencher-CACCTGGGGGAGTATTGCGGAGGAAGG + anchor), 100 nM annealed; ATP concentration: 500 uM
In short: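 Values give the fluorescence ratio for each switch-domain sequence, averaged from per-cluster ratios of summed target-cycle to summed buffer-cycle Cy3 intensity. The Cy3-labelled switching-strand clusters sat on a modified Illumina MiSeq flow-cell, were annealed to 100 nM quencher-labelled ATP aptamer, and were imaged in selection buffer, then after 15 min with 500 uM ATP at 22 °C. Five cycles ran with NaOH stripping and re-annealing between them, and clusters outside 100-1000 RFU were excluded.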
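Also: ATP exposure 15 min at 22 °C before imaging.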

Sequence | switch fluorescence ratio
TACCGGCTCA | 0.999 ± 0.017
TGATTTTTTG | 0.969 ± 0.03
TGGGAAGTGT | 0.9621 ± 0.0013
GCGCTATCTT | 1.06 ± 0.041
TTTTCATTAC | 1.26 ± 0.069
TTTTTTAGGA | 1.01 ± 0.019
TTTGATATTT | 1.11 ± 0.22
GAGAAGTTTG | 1.01 ± 0.018
TTGGGCACTG | 0.974 ± 0.013
GAGGCCCTGA | 0.971 ± 0.035
TCAATTTGTT | 0.992 ± 0.033
AATAGAATTT | 0.997 ± 0.035
GCTTGCAGTG | 0.995 ± 0.033
CCTTTCCGGG | 1.21 ± 0.048
GGTATTGTAG | 0.982 ± 0.025
CGAGGGTTTG | 0.9968 ± 0.0032
GGTGTTGGTG | 1.01 ± 0.025
AAAGTCTGAT | 0.959 ± 0.027
AAGGTTCTGG | 0.9883 ± 0.0083
TGTGGTAGGT | 1.01 ± 0.057
GCGGCTAGTC | 1.012 ± 0.0064
AATGAACTAG | 1.01 ± 0.053
TGTGTTCCCT | 0.982 ± 0.028

Sequence | switch fluorescence ratio
AGATGGAATT | 0.994 ± 0.048
TCAAAGTCCT | 1.01 ± 0.02
AATTGACTTT | 1.04 ± 0.011
TCAAAGTCAT | 0.991 ± 0.0068
CCAGGAGTAG | 1.034 ± 0.0039
AAATGGGAGC | 0.99 ± 0.031
TGGGATTTGG | 0.98432 ± 0.00062
AAGTTTCTG | 0.9892 ± 0.0025
ATGTCATTGG | 1.01 ± 0.024
CGTTACGTGT | 1.026 ± 0.0042
ATAGGGATGG | 0.9829 ± 0.0035
AAGGGATAGG | 0.9844 ± 0.001
ATGTGTGAGG | 1.01 ± 0.014
CGACGTGATG | 1.227 ± 0.0082
AGTGTTATTT | 0.993 ± 0.011
TGATTGTGGG | 1.03 ± 0.033
GAAATTAAGT | 1.02 ± 0.045
ACCGGGATGG | 0.994 ± 0.024
TTCGGGTTTA | 0.994 ± 0.055
AGTGTGGGCG | 1.04 ± 0.02
ATTTTACAGC | 1.03 ± 0.0074
GGCTCAGAGA | 1.004 ± 0.0045
CGGATGGAAA | 0.964 ± 0.02

Sequence | switch fluorescence ratio
CCGGAGTGGA | 2.56 ± 1.3
CAATAGTAGA | 1.01 ± 0.036
CGGGGCCGTT | 1 ± 0.019
TTGTATCTTT | 1.03 ± 0.011
TTTTGGGGC | 1.04 ± 0.013
GTTTATGTGG | 0.981 ± 0.025
TGGAAAAGCT | 1.06 ± 0.034
TAAGGGGATA | 1.06 ± 0.11
GGGCGGTGGG | 1 ± 0.068
AGAAAAAACA | 0.986 ± 0.02
TGGGTAAGTG | 0.975 ± 0.022
GCTTCTCACA | 0.981 ± 0.028
CTGGTTGTCT | 1.01 ± 0.006
ATAAATTTTC | 0.951 ± 0.043
GTGTTTATGG | 0.984 ± 0.011
TAGGGGTTGC | 1.1 ± 0.11
ACTCATGATG | 0.99 ± 0.024
TCTTGTTATT | 0.9985 ± 0.0054
TGTTTTTCTA | 1 ± 0.044
ATGTGCTGGG | 0.981 ± 0.031
AGAAGTTTTA | 1.01 ± 0.075
TGGGGGGAAC | 1.02 ± 0.019
GCGGCTGTGG | 0.9861 ± 0.008

Sequence | switch fluorescence ratio
GGGGTATGCC | 1.01 ± 0.027
GGTTGGTTTC | 1.01 ± 0.055
AGGGCTGTTC | 1.063 ± 0.0045
CCGGGGTGTT | 1.22 ± 0.3
GGGTTCCATT | 1.023 ± 0.0075
AATTCGTGTT | 0.989 ± 0.021
AAAGACGCGG | 0.992 ± 0.015
AAAGAATTCA | 1.05 ± 0.051
CAGTTTGAGT | 1.006 ± 0.0014
GTTCTTGTAT | 0.988 ± 0.029
GAGGGGAGAC | 1.02 ± 0.048
ATGCGGGGTT | 1.02 ± 0.05
GGGGATACGC | 1.03 ± 0.012
GGGTATTTTA | 0.988 ± 0.057
TATTGTTTGA | 0.9578 ± 0.0067
AGTGGGAATC | 0.989 ± 0.032
GAGCTACCCG | 1.04 ± 0.031
TCGGTGTCCG | 1.03 ± 0.055
GTTGGGGAAA | 0.9985 ± 0.0075
ATGCGTGACA | 1.02 ± 0.036
CATGGCACGT | 1.02 ± 0.011
TATGGATGGG | 0.961 ± 0.02
TGGCACAGAG | 1 ± 0.022

Sequence | switch fluorescence ratio
CCATTTTGCA | 1.04 ± 0.05
TTTGCCGGG | 1.02 ± 0.0019
CCTATTGGGG | 1.02 ± 0.037
GCGTTATTTT | 1.012 ± 0.0076
CGTTGCAGT | 0.986 ± 0.011
GAGGGTACTG | 1.032 ± 0.0053
ACATTGGGGC | 0.978 ± 0.046
TGATGTAACG | 1.012 ± 0.0082
AATTCTTTTG | 1.01 ± 0.043
AGGGTCAAGG | 0.971 ± 0.046
TATAGGGAGT | 1.01 ± 0.014
CTAGGGGTTC | 1.01 ± 0.046
CATGGGGTTA | 1.04 ± 0.048
GCTACGGGGG | 1.02 ± 0.037
GTTTAGATGT | 0.994 ± 0.02
CGTAGTCTGG | 1.05 ± 0.038
TACGAAGTCG | 1.0075 ± 0.00084
TCCATGACCC | 1.01 ± 0.015
CTAAATATTA | 1.031 ± 0.0049
AACGTTTAAA | 1.04 ± 0.1
CCTTCGAGG | 1.15 ± 0.2
CGAGATCGAC | 0.97 ± 0.012
GCTTGTACAT | 0.982 ± 0.018

Sequence | switch fluorescence ratio
GGGGTTAGTT | 0.993 ± 0.023
CGAGGAGGGA | 0.9686 ± 0.0093
GGTGTATTAG | 1 ± 0.029
TTTTCAAGTA | 0.9789 ± 0.0094
CGGTTCGGCT | 1.04 ± 0.047
TTTTCATGGT | 1.01 ± 0.035
CGACTGGAAC | 1.207 ± 0.008
GTGGTTCTTG | 0.99 ± 0.019
TCCCCAATTT | 1.13 ± 0.12
ACGACCGTTG | 1.02 ± 0.061
TGATGCGGGT | 0.98723 ± 6.3e-05
TTAGTATTTT | 1.02 ± 0.087
CTCCAAAGCG | 1.19 ± 0.032
GGTGCGGGGT | 0.983 ± 0.016
GGGATTACGT | 1.03 ± 0.029
TGCTGGCATA | 1.18 ± 0.29
ACAGGCTGCG | 0.995 ± 0.024
TGAGAGAGGG | 0.983 ± 0.012
TAATTTCAAG | 1.014 ± 0.0039
TTTCCCTGTT | 1.05 ± 0.076
AAGTTCATCT | 1 ± 0.07
GCTATTGAAA | 0.9922 ± 0.0018
AATTTTGCTG | 0.9662 ± 0.0053

Sequence | switch fluorescence ratio
CATGAAGCTG | 1.02 ± 0.018
CGGGCGGTGG | 0.9829 ± 0.0069
GTGTTTGGCG | 0.9981 ± 0.0051
AGGGGGATTT | 0.999 ± 0.052
TTTAGCCGGG | 0.985 ± 0.014
TTAGGGGTGT | 1.01 ± 0.022
TGCTTTGTGT | 0.978 ± 0.025
TTGGCTCTTT | 1.01 ± 0.02
TTCGGCGGGT | 1.03 ± 0.025
GCGCTCGTCG | 1.07 ± 0.012
TGGATTAAGG | 1.03 ± 0.033
ATAATTGTCT | 1.04 ± 0.04
GGACACAGGC | 1.01 ± 0.023
CCAGAGGTTG | 0.999 ± 0.021
GGGAGAATGG | 0.98 ± 0.028
GAGGTGGGGG | 0.993 ± 0.029
GCTGTCAGCG | 1.02 ± 0.024
GGGTTAGCGG | 1.01 ± 0.027
GAAGTGAGTT | 1 ± 0.018
